Source: the supplement of paper PMC12338614
± gives the uncertainty stated by the source.

B1: library; numbered along this chain (parent)
chain: MEVVDPQQLGMFTEGELMSVGMDTFIHRIDSTEVIYQPRRKRAKLIGKYLMGDLLGEGSYGKVKEVLDSETLCRRAVKILKKKKLRRIPNGEANVKKEIQLLRRLRHKNVIQLVDVLYNEEKQKMYMVMEYCVCGMQEMLDSVPEKRFPVCQAHGYFCQLIDGLEYLHSQGIVHKDIKPGNLLLTTGGTLKISDLGVAEALHPFAADDTCRTSQGSPAFQPPEIANGLDTFSGFKVDIWSAGVTLYNITTGLYPFEGDNIYKLFENIGKGSYAIPGDCGPPLSDLLKGMLEYEPAKRFSIRQIRQHSWFRKKHPPAEAPVPIPPSPDTKDRWRSMTVVPYLEDLHGADEDEDLFDIEDDIIYTQDFTVPGQVPEEEASHNGQRRGLPKAVCMNGTEAAQLSTKSRAEGRAPNPARKACSASSKIRRLSACKQQ

Variants of: B1
Assay: STK11 functional score (HeLa growth suppression), rescaled enrichment; synonymous median = 1, nonsense median = 0 (normalised score)
Details: with HeLa; variant type: missense
In short: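 The functional score takes the post/pre-selection log ratio, corrects it to wild type, rescales it to synonymous and nonsense medians, and merges it over codons and replicate transfections, with error from bootstrapping. Counts came from tiled gDNA amplicons sequenced on NextSeq (~2 million reads per tile). The libraries were POPCode codon-randomised, codon-optimised STK11 integrated by Bxb1 at an AAVS1 landing pad in HeLa, three regions with three transfections each.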
A206W gave an STK11 functional score of 0.035 ± 0.16.
Work on A206P yielded an STK11 functional score of 1.24 ± 0.15.
For A206N, the STK11 functional score was 1.66 ± 0.2.
With L80Y the STK11 functional score was 1.13 ± 0.23.
M11W was tested, and the STK11 functional score was 1.71 ± 0.11.
Work on T71E yielded an STK11 functional score of 1.37 ± 0.42.
A420V gave an STK11 functional score of 1.52 ± 0.21.
Work on F298P yielded an STK11 functional score of 1.16 ± 0.26.
Work on N259D yielded an STK11 functional score of 1.12 ± 0.63.
For A76W, the STK11 functional score was -0.171 ± 0.28.
With K48T the STK11 functional score was 1.59 ± 0.29.
With I303C the STK11 functional score was 0.545 ± 0.16.
Variant E199K has an STK11 functional score of 1.2 ± 0.76.
With A406L the STK11 functional score was 1.57 ± 0.22.
In the case of I274H, the STK11 functional score is reported as 0.363 ± 0.074.
Work on L201W yielded an STK11 functional score of 0.55 ± 0.12.
L201A was tested, and the STK11 functional score was 1.59 ± 0.23.
L353H showed an STK11 functional score of 1.4 ± 0.68.
Work on L353A yielded an STK11 functional score of 1.56 ± 0.24.
R74L gave an STK11 functional score of 1.42 ± 0.094.
Variant G56M has an STK11 functional score of 1 ± 0.093.
A397S showed an STK11 functional score of 1.26 ± 0.17.
I224Q gave an STK11 functional score of 0.698 ± 0.65.
P38Y gave an STK11 functional score of 0.0651 ± 0.12.
Variant P38L has an STK11 functional score of 0.812 ± 0.14.
In the case of L290T, the STK11 functional score is reported as 1.07 ± 0.45.
Work on R28S yielded an STK11 functional score of 1.59 ± 0.13.
S422T showed an STK11 functional score of 0.705 ± 0.26.
With D348N the STK11 functional score was 0.723 ± 0.63.
In the case of G270Q, the STK11 functional score is reported as 1.16 ± 0.38.
G270T showed an STK11 functional score of 1.09 ± 0.15.
In the case of D115E, the STK11 functional score is reported as 1.27 ± 0.32.
L45M was tested, and the STK11 functional score was 1.25 ± 0.08.
A295V showed an STK11 functional score of 1.17 ± 0.28.
Y156C showed an STK11 functional score of 0.324 ± 0.12.
With H313D the STK11 functional score was 1.17 ± 0.29.
G381H gave an STK11 functional score of 1.6 ± 0.29.
For G370R, the STK11 functional score was 1.16 ± 0.47.
Variant K423R has an STK11 functional score of 1.17 ± 0.14.
Work on D176H yielded an STK11 functional score of -0.154 ± 0.14.
D176W was tested, and the STK11 functional score was -0.0742 ± 0.054.
Variant I248Q has an STK11 functional score of 1.25 ± 0.49.
I248C showed an STK11 functional score of 1 ± 0.24.
Variant E16A has an STK11 functional score of 1.53 ± 0.46.
Variant E16L has an STK11 functional score of 1.15 ± 0.29.
In the case of M125S, the STK11 functional score is reported as 0.769 ± 0.16.
A377W was tested, and the STK11 functional score was 0.843 ± 0.75.
Variant S283W has an STK11 functional score of 0.819 ± 0.087.
A398Y gave an STK11 functional score of 1.23 ± 0.29.
With A398R the STK11 functional score was 1.42 ± 0.24.
In the case of A398K, the STK11 functional score is reported as 1.53 ± 0.22.
Work on D141F yielded an STK11 functional score of 1.52 ± 0.12.
Variant D141T has an STK11 functional score of 0.00893 ± 0.31.
Variant I99V has an STK11 functional score of 0.876 ± 0.11.
Work on P339G yielded an STK11 functional score of 0.73 ± 0.27.
In the case of R106E, the STK11 functional score is reported as 1.63 ± 0.29.
For R106T, the STK11 functional score was 1.69 ± 0.18.
In the case of R106L, the STK11 functional score is reported as 1.15 ± 0.081.
With Q382E the STK11 functional score was 1.2 ± 0.43.
With A218G the STK11 functional score was 0.816 ± 0.14.
R104Y gave an STK11 functional score of 0.684 ± 0.14.
Work on E14M yielded an STK11 functional score of 1.62 ± 0.18.
For G171N, the STK11 functional score was 1.69 ± 0.14.
For Q37P, the STK11 functional score was 1.16 ± 0.21.
Work on N109I yielded an STK11 functional score of 0.256 ± 0.084.
With N109V the STK11 functional score was 0.132 ± 0.083.
Variant A347I has an STK11 functional score of 1.52 ± 0.17.
Work on E374W yielded an STK11 functional score of 1.55 ± 0.14.
E374T was tested, and the STK11 functional score was 1.52 ± 0.31.
For E374H, the STK11 functional score was 1.06 ± 0.53.
C134M was tested, and the STK11 functional score was 0.248 ± 0.08.
For C134T, the STK11 functional score was 1.61 ± 0.28.
With C134A the STK11 functional score was 1.1 ± 0.081.
Variant C134G has an STK11 functional score of 0.564 ± 0.14.
In the case of A200G, the STK11 functional score is reported as 0.439 ± 0.33.
A200F showed an STK11 functional score of 0.455 ± 0.11.
N247Y was tested, and the STK11 functional score was 1.32 ± 0.28.
With K311P the STK11 functional score was 1.07 ± 0.4.
R426N was tested, and the STK11 functional score was 1.58 ± 0.27.
Work on D237E yielded an STK11 functional score of 0.97 ± 0.53.
With L344F the STK11 functional score was 0.831 ± 0.38.
In the case of L344T, the STK11 functional score is reported as 1.56 ± 0.17.
Y253W was tested, and the STK11 functional score was 0.66 ± 0.1.
